The array DNA melting data of Ke et al.

Assay: melting temperature; melt of duplexes
Details: sodium 0.0675 M; strand 1 µM

Point of comparison: “CGACGTGCCTGATGTGCTG+CAGCACATTCCGCACGTCG ((((((((...((((((((+))))))))...))))))))”, Tm 48.5 °C. Against it:
- CGACGTGCCGAATGTGCTG+CAGCACATAGAGCACGTCG ((((((((...((((((((+))))))))...)))))))) — higher, 49.9 °C
- CGACGTGCCACATGTGCTG+CAGCACATCTTGCACGTCG ((((((((.(.((((((((+)))))))).).)))))))) — lower, 47.5 °C
- CGACGTGCTGCATGTGCTG+CAGCACATACTGCACGTCG ((((((((.(.((((((((+)))))))).).)))))))) — higher, 53 °C
- CGACGTGCTGTATGTGCTG+CAGCACATCTTGCACGTCG ((((((((...((((((((+))))))))...)))))))) — higher, 49.9 °C
- CGACGTGCATGATGTGCTG+CAGCACATTGAGCACGTCG ((((((((...((((((((+))))))))...)))))))) — higher, 50.7 °C
- CGACGTGCCTAATGTGCTG+CAGCACATTCGGCACGTCG (((((((((.(((((((((+))))))))).))))))))) — higher, 57 °C
- CGACGTGCCACATGTGCTG+CAGCACATCACGCACGTCG ((((((((...((((((((+))))))))...)))))))) — lower, 46.2 °C
- CGACGTGCAATATGTGCTG+CAGCACATATGGCACGTCG ((((((((.((((((((((+)))))))))).)))))))) — higher, 55.6 °C
- CGACGTGCTCCATGTGCTG+CAGCACATGTAGCACGTCG (((((((((.(((((((((+))))))))).))))))))) — higher, 56.3 °C
- CGACGTGCCAGATGTGCTG+CAGCACATCGGGCACGTCG (((((((((.(((((((((+))))))))).))))))))) — higher, 62.2 °C
- CGACGTGCATGATGTGCTG+CAGCACATGGCGCACGTCG ((((((((...((((((((+))))))))...)))))))) — lower, 48.1 °C
- CGACGTGCCGCATGTGCTG+CAGCACATGGGGCACGTCG (((((((((.(((((((((+))))))))).))))))))) — higher, 62.6 °C
- CGACGTGCTAAATGTGCTG+CAGCACATGAGGCACGTCG ((((((((...((((((((+))))))))...)))))))) — higher, 53.4 °C
- CGACGTGCCGGATGTGCTG+CAGCACATGCAGCACGTCG ((((((((.(.((((((((+)))))))).).)))))))) — higher, 53.1 °C
- CGACGTGCGTTATGTGCTG+CAGCACATCCAGCACGTCG ((((((((...((((((((+))))))))...)))))))) — higher, 49.6 °C
- CGACGTGCCGCATGTGCTG+CAGCACATTGTGCACGTCG ((((((((...((((((((+))))))))...)))))))) — lower, 45.7 °C
- CGACGTGCTCGATGTGCTG+CAGCACATAGAGCACGTCG ((((((((((.((((((((+)))))))).)))))))))) — higher, 59.5 °C
- CGACGTGCAACATGTGCTG+CAGCACATAAGGCACGTCG ((((((((...((((((((+))))))))...)))))))) — lower, 47.8 °C
- CGACGTGCCGTATGTGCTG+CAGCACATTGCGCACGTCG ((((((((...((((((((+))))))))...)))))))) — higher, 49.3 °C
- CGACGTGCGGCATGTGCTG+CAGCACATAGCGCACGTCG (((((((((..((((((((+))))))))..))))))))) — higher, 55.9 °C
- CGACGTGCGGGATGTGCTG+CAGCACATCTTGCACGTCG ((((((((..(((((((((+)))))))))..)))))))) — higher, 57.3 °C
- CGACGTGCTAGATGTGCTG+CAGCACATTGCGCACGTCG ((((((((...((((((((+))))))))...)))))))) — higher, 49.2 °C
- CGACGTGCGGGATGTGCTG+CAGCACATCATGCACGTCG ((((((((..(((((((((+)))))))))..)))))))) — higher, 57 °C
- CGACGTGCAATATGTGCTG+CAGCACATAGTGCACGTCG (((((((((.(((((((((+))))))))).))))))))) — higher, 53.9 °C
- CGACGTGCAGCATGTGCTG+CAGCACATCCCGCACGTCG ((((((((.(.((((((((+)))))))).).)))))))) — lower, 46.3 °C
- CGACGTGCCCTATGTGCTG+CAGCACATAACGCACGTCG ((((((((..(((((((((+)))))))))..)))))))) — higher, 48.7 °C
- CGACGTGCTAAATGTGCTG+CAGCACATTTAGCACGTCG (((((((((((((((((((+))))))))))))))))))) — higher, 61.6 °C
- CGACGTGCCCCATGTGCTG+CAGCACATCTAGCACGTCG ((((((((...((((((((+))))))))...)))))))) — lower, 47.3 °C
- CGACGTGCTCGATGTGCTG+CAGCACATGACGCACGTCG ((((((((...((((((((+))))))))...)))))))) — lower, 47.4 °C
- CGACGTGCTTGATGTGCTG+CAGCACATTGTGCACGTCG ((((((((...((((((((+))))))))...)))))))) — lower, 47.2 °C
- CGACGTGCATCATGTGCTG+CAGCACATCACGCACGTCG ((((((((.(.((((((((+)))))))).).)))))))) — lower, 46.6 °C
- CGACGTGCGAGATGTGCTG+CAGCACATGAAGCACGTCG ((((((((...((((((((+))))))))...)))))))) — higher, 55.4 °C
- CGACGTGCGGTATGTGCTG+CAGCACATTATGCACGTCG ((((((((...((((((((+))))))))...)))))))) — higher, 51.3 °C
- CGACGTGCAATATGTGCTG+CAGCACATGACGCACGTCG ((((((((...((((((((+))))))))...)))))))) — lower, 48.2 °C
- CGACGTGCTGAATGTGCTG+CAGCACATAGCGCACGTCG ((((((((...((((((((+))))))))...)))))))) — lower, 48.3 °C
- CGACGTGCGTAATGTGCTG+CAGCACATAGCGCACGTCG (((((((((..((((((((+))))))))..))))))))) — higher, 56.1 °C
- CGACGTGCATGATGTGCTG+CAGCACATCATGCACGTCG (((((((((((((((((((+))))))))))))))))))) — higher, 63.6 °C
- CGACGTGCCACATGTGCTG+CAGCACATCAAGCACGTCG ((((((((...((((((((+))))))))...)))))))) — lower, 47.7 °C
- CGACGTGCAGGATGTGCTG+CAGCACATTTCGCACGTCG ((((((((...((((((((+))))))))...)))))))) — higher, 51.1 °C
- CGACGTGCTTCATGTGCTG+CAGCACATCAGGCACGTCG ((((((((.(.((((((((+)))))))).).)))))))) — higher, 49.1 °C
- CGACGTGCTCAATGTGCTG+CAGCACATCTGGCACGTCG ((((((((...((((((((+))))))))...)))))))) — higher, 50.3 °C
- CGACGTGCGTGATGTGCTG+CAGCACATGTCGCACGTCG (((((((((..((((((((+))))))))..))))))))) — higher, 55.2 °C
- CGACGTGCGCGATGTGCTG+CAGCACATAGTGCACGTCG ((((((((.(.((((((((+)))))))).).)))))))) — higher, 53.7 °C
- CGACGTGCCCCATGTGCTG+CAGCACATATCGCACGTCG ((((((((...((((((((+))))))))...)))))))) — lower, 45.5 °C
- CGACGTGCAAAATGTGCTG+CAGCACATGAGGCACGTCG ((((((((...((((((((+))))))))...)))))))) — higher, 52.5 °C
- CGACGTGCAGCATGTGCTG+CAGCACATAACGCACGTCG ((((((((...((((((((+))))))))...)))))))) — lower, 47.6 °C
- CGACGTGCCTCATGTGCTG+CAGCACATCTGGCACGTCG (((((((((..((((((((+))))))))..))))))))) — higher, 52.7 °C
- CGACGTGCAGCATGTGCTG+CAGCACATTGGGCACGTCG ((((((((...((((((((+))))))))...)))))))) — lower, 47.2 °C
- CGACGTGCCTGATGTGCTG+CAGCACATATAGCACGTCG ((((((((...((((((((+))))))))...)))))))) — higher, 49.8 °C
- CGACGTGCGCTATGTGCTG+CAGCACATGTAGCACGTCG ((((((((...((((((((+))))))))...)))))))) — higher, 52.5 °C
- CGACGTGCCACATGTGCTG+CAGCACATTTGGCACGTCG ((((((((((.((((((((+)))))))).)))))))))) — higher, 57.6 °C
- CGACGTGCCGTATGTGCTG+CAGCACATCTAGCACGTCG ((((((((...((((((((+))))))))...)))))))) — higher, 49.1 °C
- CGACGTGCCTCATGTGCTG+CAGCACATCCCGCACGTCG ((((((((...((((((((+))))))))...)))))))) — lower, 46.5 °C
- CGACGTGCAGAATGTGCTG+CAGCACATATAGCACGTCG ((((((((...((((((((+))))))))...)))))))) — higher, 50.4 °C
- CGACGTGCTCGATGTGCTG+CAGCACATAGCGCACGTCG ((((((((.(.((((((((+)))))))).).)))))))) — higher, 51.6 °C
- CGACGTGCCCTATGTGCTG+CAGCACATGCAGCACGTCG ((((((((...((((((((+))))))))...)))))))) — higher, 49.7 °C
- CGACGTGCGCTATGTGCTG+CAGCACATTTAGCACGTCG ((((((((...((((((((+))))))))...)))))))) — higher, 51.6 °C
- CGACGTGCCGCATGTGCTG+CAGCACATGGCGCACGTCG ((((((((..(((((((((+)))))))))..)))))))) — higher, 54.9 °C
- CGACGTGCACTATGTGCTG+CAGCACATCCTGCACGTCG (((((((((..((((((((+))))))))..))))))))) — lower, 44.9 °C
- CGACGTGCCTTATGTGCTG+CAGCACATTACGCACGTCG ((((((((.(.((((((((+)))))))).).)))))))) — lower, 47.7 °C
- CGACGTGCGTAATGTGCTG+CAGCACATTGCGCACGTCG (((((((((.(((((((((+))))))))).))))))))) — higher, 60.3 °C
- CGACGTGCGGCATGTGCTG+CAGCACATCCTGCACGTCG ((((((((.(.((((((((+)))))))).).)))))))) — higher, 53.4 °C
- CGACGTGCACAATGTGCTG+CAGCACATCGTGCACGTCG ((((((((((.((((((((+)))))))).)))))))))) — higher, 53 °C
- CGACGTGCAGGATGTGCTG+CAGCACATGTAGCACGTCG ((((((((...((((((((+))))))))...)))))))) — higher, 50.4 °C
- CGACGTGCATAATGTGCTG+CAGCACATGCGGCACGTCG ((((((((...((((((((+))))))))...)))))))) — higher, 48.7 °C
- CGACGTGCTGTATGTGCTG+CAGCACATACTGCACGTCG ((((((((.((((((((((+)))))))))).)))))))) — higher, 57.8 °C
- CGACGTGCCGTATGTGCTG+CAGCACATGGAGCACGTCG ((((((((...((((((((+))))))))...)))))))) — higher, 50.8 °C
- CGACGTGCGGAATGTGCTG+CAGCACATTGCGCACGTCG (((((((((.(((((((((+))))))))).))))))))) — higher, 61.2 °C
- CGACGTGCTAAATGTGCTG+CAGCACATTACGCACGTCG ((((((((..(((((((((+)))))))))..)))))))) — higher, 51.4 °C
- CGACGTGCGAGATGTGCTG+CAGCACATCCCGCACGTCG (((((((((.(((((((((+))))))))).))))))))) — higher, 60.3 °C
- CGACGTGCCGCATGTGCTG+CAGCACATCGAGCACGTCG ((((((((...((((((((+))))))))...)))))))) — higher, 54.5 °C
